Source: the supplement of paper PMC9112550, “Optimization of the antimicrobial peptide Bac7 by deep mutational scanning” (BMC Biology, 2022)

Test system: Escherichia coli TOP10
Assay: shrunken log2 fold change of peptide-encoding DNA abundance (4.5 h post-induction vs induction); higher = less antimicrobial activity (less host growth inhibition)
Settings: time post-induction: 4.5 h; library: site-saturation at positions 5, 18, 19, 20
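Also: peptides expressed intracellularly from a pBAD plasmid library in pooled LB shake-flask culture, induced with 0.3% L-arabinose, DNA abundance read by NGS, three biological replicates, DESeq2 with apeglm shrinkage.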

Row | Sequence | shrunken log2 fold change
1 | RRIRRRPPRLPRPRPRPRYVPRP | 0.147
2 | RRIRRRPPRLPRPRPRPSADPRP | 0.247
3 | RRIRRRPPRLPRPRPRPSATPRP | 0.756
4 | RRIRRRPPRLPRPRPRPSEFPRP | 0.00596
5 | RRIRRRPPRLPRPRPRPSFAPRP | 0.492
6 | RRIRRRPPRLPRPRPRPSFCPRP | -0.00369
7 | RRIRRRPPRLPRPRPRPSFFPRP | 0.0112
8 | RRIRRRPPRLPRPRPRPSFPPRP | 0.0188
9 | RRIRRRPPRLPRPRPRPSFYPRP | -0.36
10 | RRIRRRPPRLPRPRPRPSGHPRP | 0.161
11 | RRIRRRPPRLPRPRPRPSHGPRP | 0.145
12 | RRIRRRPPRLPRPRPRPSHQPRP | 0.0351
13 | RRIRRRPPRLPRPRPRPSIVPRP | 0.26
14 | RRIRRRPPRLPRPRPRPSIYPRP | -0.449
15 | RRIRRRPPRLPRPRPRPSKDPRP | 0.0136
16 | RRIRRRPPRLPRPRPRPSKSPRP | 0.292
17 | RRIRRRPPRLPRPRPRPSMLPRP | -0.172
18 | RRIRRRPPRLPRPRPRPSNVPRP | 0.27
19 | RRIRRRPPRLPRPRPRPSQMPRP | 0.0447
20 | RRIRRRPPRLPRPRPRPSQNPRP | 0.0754
21 | RRIRRRPPRLPRPRPRPSQSPRP | 0.121
22 | RRIRRRPPRLPRPRPRPSRFPRP | 0.536
23 | RRIRRRPPRLPRPRPRPSRQPRP | 0.352
24 | RRIRRRPPRLPRPRPRPSSFPRP | -0.0626
25 | RRIRRRPPRLPRPRPRPSSMPRP | -0.143

Row | Sequence | shrunken log2 fold change
26 | RRIRRRPPRLPRPRPRPTAMPRP | 0.78
27 | RRIRRRPPRLPRPRPRPTANPRP | 0.589
28 | RRIRRRPPRLPRPRPRPTDCPRP | 0.0967
29 | RRIRRRPPRLPRPRPRPTDKPRP | 0.0418
30 | RRIRRRPPRLPRPRPRPTETPRP | 0.137
31 | RRIRRRPPRLPRPRPRPTFGPRP | 0.337
32 | RRIRRRPPRLPRPRPRPTFNPRP | 0.077
33 | RRIRRRPPRLPRPRPRPTGEPRP | 0.337
34 | RRIRRRPPRLPRPRPRPTGLPRP | 0.0398
35 | RRIRRRPPRLPRPRPRPTGYPRP | 0.246
36 | RRIRRRPPRLPRPRPRPTHGPRP | 1.37
37 | RRIRRRPPRLPRPRPRPTHRPRP | 0.867
38 | RRIRRRPPRLPRPRPRPTICPRP | 0.394
39 | RRIRRRPPRLPRPRPRPTKMPRP | 0.248
40 | RRIRRRPPRLPRPRPRPTLMPRP | 0.581
41 | RRIRRRPPRLPRPRPRPTMEPRP | -0.0829
42 | RRIRRRPPRLPRPRPRPTNGPRP | -0.168
43 | RRIRRRPPRLPRPRPRPTNLPRP | 0.068
44 | RRIRRRPPRLPRPRPRPTPGPRP | 1.11
45 | RRIRRRPPRLPRPRPRPTQMPRP | 0.694
46 | RRIRRRPPRLPRPRPRPTRHPRP | 0.783
47 | RRIRRRPPRLPRPRPRPTSDPRP | 0.256
48 | RRIRRRPPRLPRPRPRPTSMPRP | 0.263
49 | RRIRRRPPRLPRPRPRPTVFPRP | 0.721
50 | RRIRRRPPRLPRPRPRPTVNPRP | 0.15

Row | Sequence | shrunken log2 fold change
51 | RRIRRRPPRLPRPRPRPTWHPRP | 0.429
52 | RRIRRRPPRLPRPRPRPTWVPRP | 0.275
53 | RRIRRRPPRLPRPRPRPVACPRP | 0.41
54 | RRIRRRPPRLPRPRPRPVANPRP | 0.207
55 | RRIRRRPPRLPRPRPRPVDAPRP | 0.804
56 | RRIRRRPPRLPRPRPRPVELPRP | 0.0415
57 | RRIRRRPPRLPRPRPRPVFLPRP | 0.0173
58 | RRIRRRPPRLPRPRPRPVGDPRP | -0.0486
59 | RRIRRRPPRLPRPRPRPVGWPRP | 0.666
60 | RRIRRRPPRLPRPRPRPVGYPRP | 0.02
61 | RRIRRRPPRLPRPRPRPVHLPRP | -0.022
62 | RRIRRRPPRLPRPRPRPVIAPRP | 0.654
63 | RRIRRRPPRLPRPRPRPVIDPRP | -0.165
64 | RRIRRRPPRLPRPRPRPVIVPRP | -0.114
65 | RRIRRRPPRLPRPRPRPVLVPRP | 0.487
66 | RRIRRRPPRLPRPRPRPVLWPRP | 0.886
67 | RRIRRRPPRLPRPRPRPVNTPRP | -0.0567
68 | RRIRRRPPRLPRPRPRPVPAPRP | 1.06
69 | RRIRRRPPRLPRPRPRPVQFPRP | 0.0855
70 | RRIRRRPPRLPRPRPRPVSDPRP | 0.444
71 | RRIRRRPPRLPRPRPRPVSFPRP | 0.178
72 | RRIRRRPPRLPRPRPRPVTAPRP | 0.452
73 | RRIRRRPPRLPRPRPRPVVNPRP | 0.61
74 | RRIRRRPPRLPRPRPRPVWKPRP | 0.147
75 | RRIRRRPPRLPRPRPRPWCKPRP | -0.0285
